Source: patent US11833164B2, “Methods of treating Fabry disease in patients having a mutation in the GLA gene” (Amicus Therapeutics, Inc., priority 2019, dated 2023)

B1: E338D (protein)
chain: MQLRNPELHLGCALALRFLALVSWDIPGARALDNGLARTPTMGWLHWERFMCNLDCQEEPDSCISEKLFMEMAELMVSEGWKDAGYEYLCIDDCWMAPQRDSEGRLQADPQRFPHGIRQLANYVHSKGLKLGIYADVGNKTCAGFPGSFGYYDIDAQTFADWGVDLLKFDGCYCDSLENLADGYKHMSLALNRTGRSIVYSCEWPLYMWPFQKPNYTEIRQYCNHWRNFADIDDSWKSIKSILDWTSFNQERIVDVAGPGGWNDPDMLVIGNFGLSWNQQVTQMALWAIMAAPLFMSNDLRHISPQAKALLQDKDVIAINQDPLGKQGYQLRQGDNFDVWERPLSGLAWAVAMINRQEIGGPRSYTIAVASLGKGVACNPACFITQLLPVKRKLGFYEWTSRLRSHINPTGTVLLQLENTMQMSLKDLL
B2: P343A (protein)
chain: MQLRNPELHLGCALALRFLALVSWDIPGARALDNGLARTPTMGWLHWERFMCNLDCQEEPDSCISEKLFMEMAELMVSEGWKDAGYEYLCIDDCWMAPQRDSEGRLQADPQRFPHGIRQLANYVHSKGLKLGIYADVGNKTCAGFPGSFGYYDIDAQTFADWGVDLLKFDGCYCDSLENLADGYKHMSLALNRTGRSIVYSCEWPLYMWPFQKPNYTEIRQYCNHWRNFADIDDSWKSIKSILDWTSFNQERIVDVAGPGGWNDPDMLVIGNFGLSWNQQVTQMALWAIMAAPLFMSNDLRHISPQAKALLQDKDVIAINQDPLGKQGYQLRQGDNFEVWERALSGLAWAVAMINRQEIGGPRSYTIAVASLGKGVACNPACFITQLLPVKRKLGFYEWTSRLRSHINPTGTVLLQLENTMQMSLKDLL
B3: E341A (protein)
chain: MQLRNPELHLGCALALRFLALVSWDIPGARALDNGLARTPTMGWLHWERFMCNLDCQEEPDSCISEKLFMEMAELMVSEGWKDAGYEYLCIDDCWMAPQRDSEGRLQADPQRFPHGIRQLANYVHSKGLKLGIYADVGNKTCAGFPGSFGYYDIDAQTFADWGVDLLKFDGCYCDSLENLADGYKHMSLALNRTGRSIVYSCEWPLYMWPFQKPNYTEIRQYCNHWRNFADIDDSWKSIKSILDWTSFNQERIVDVAGPGGWNDPDMLVIGNFGLSWNQQVTQMALWAIMAAPLFMSNDLRHISPQAKALLQDKDVIAINQDPLGKQGYQLRQGDNFEVWARPLSGLAWAVAMINRQEIGGPRSYTIAVASLGKGVACNPACFITQLLPVKRKLGFYEWTSRLRSHINPTGTVLLQLENTMQMSLKDLL
B4: E341Q (protein)
chain: MQLRNPELHLGCALALRFLALVSWDIPGARALDNGLARTPTMGWLHWERFMCNLDCQEEPDSCISEKLFMEMAELMVSEGWKDAGYEYLCIDDCWMAPQRDSEGRLQADPQRFPHGIRQLANYVHSKGLKLGIYADVGNKTCAGFPGSFGYYDIDAQTFADWGVDLLKFDGCYCDSLENLADGYKHMSLALNRTGRSIVYSCEWPLYMWPFQKPNYTEIRQYCNHWRNFADIDDSWKSIKSILDWTSFNQERIVDVAGPGGWNDPDMLVIGNFGLSWNQQVTQMALWAIMAAPLFMSNDLRHISPQAKALLQDKDVIAINQDPLGKQGYQLRQGDNFEVWQRPLSGLAWAVAMINRQEIGGPRSYTIAVASLGKGVACNPACFITQLLPVKRKLGFYEWTSRLRSHINPTGTVLLQLENTMQMSLKDLL
B5: V339M (protein)
chain: MQLRNPELHLGCALALRFLALVSWDIPGARALDNGLARTPTMGWLHWERFMCNLDCQEEPDSCISEKLFMEMAELMVSEGWKDAGYEYLCIDDCWMAPQRDSEGRLQADPQRFPHGIRQLANYVHSKGLKLGIYADVGNKTCAGFPGSFGYYDIDAQTFADWGVDLLKFDGCYCDSLENLADGYKHMSLALNRTGRSIVYSCEWPLYMWPFQKPNYTEIRQYCNHWRNFADIDDSWKSIKSILDWTSFNQERIVDVAGPGGWNDPDMLVIGNFGLSWNQQVTQMALWAIMAAPLFMSNDLRHISPQAKALLQDKDVIAINQDPLGKQGYQLRQGDNFEMWERPLSGLAWAVAMINRQEIGGPRSYTIAVASLGKGVACNPACFITQLLPVKRKLGFYEWTSRLRSHINPTGTVLLQLENTMQMSLKDLL
B6: E338G (protein)
chain: MQLRNPELHLGCALALRFLALVSWDIPGARALDNGLARTPTMGWLHWERFMCNLDCQEEPDSCISEKLFMEMAELMVSEGWKDAGYEYLCIDDCWMAPQRDSEGRLQADPQRFPHGIRQLANYVHSKGLKLGIYADVGNKTCAGFPGSFGYYDIDAQTFADWGVDLLKFDGCYCDSLENLADGYKHMSLALNRTGRSIVYSCEWPLYMWPFQKPNYTEIRQYCNHWRNFADIDDSWKSIKSILDWTSFNQERIVDVAGPGGWNDPDMLVIGNFGLSWNQQVTQMALWAIMAAPLFMSNDLRHISPQAKALLQDKDVIAINQDPLGKQGYQLRQGDNFGVWERPLSGLAWAVAMINRQEIGGPRSYTIAVASLGKGVACNPACFITQLLPVKRKLGFYEWTSRLRSHINPTGTVLLQLENTMQMSLKDLL

System: mutant form of α-Gal A expressed in HEK-293 cells
Experiment: HEK assay (GLP HEK / Migalastat Amenability Assay): α-Gal A activity in lysates of transiently transfected HEK-293 cells incubated with or without 10 μM migalastat
Type: cell-based, human
Conditions: for Absolute increase (% WT) / Relative increase: 10 μM migalastat versus baseline; for Baseline α-Gal A activity (% WT): absence of migalastat; for Baseline α-Gal A activity (% WT) / 10 μM migalastat α-Gal A activity (% WT): percentage of baseline wild-type α-Gal A activity; for Baseline α-Gal A activity (% WT) / Baseline α-Gal A activity / 10 μM migalastat α-Gal A activity / 10 μM migalastat α-Gal A activity (% WT): mean ± SEM; for Baseline α-Gal A activity / 10 μM migalastat α-Gal A activity: lysates of HEK-293 cells transiently transfected with the mutant form; for Baseline α-Gal A activity: incubated 5 days in absence of migalastat; for 10 μM migalastat α-Gal A activity: incubated 5 days with 10 μM migalastat; for 10 μM migalastat α-Gal A activity (% WT): with 10 μM migalastat, 5 days
Outline: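 HEK-293 cells transiently transfected with mutant α-Gal A and incubated with or without 10 μM migalastat; lysate activity given as nmol free 4-MU released per mg protein per hour. Values are mean±SEM.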

Row | Molecule | Absolute increase (% WT) | Relative increase | Baseline α-Gal A activity (% WT) | Baseline α-Gal A activity | 10 μM migalastat α-Gal A activity | 10 μM migalastat α-Gal A activity (% WT)
1 | B1 | 15.2 % WT | 1.2 | 65.7 ± 4.9 % WT | 25700 ± 1958 nmol/mg/h | 31632 ± 1825 nmol/mg/h | 80.9 ± 4.6 % WT
2 | B2 | 21.2 % WT | 1.3 | 69.5 ± 4.9 % WT | 25254 ± 2385 nmol/mg/h | 32890 ± 2292 nmol/mg/h | 90.7 ± 3.7 % WT
3 | B3 | 11.6 % WT | 4.1 | 3.8 ± 0.4 % WT | 1444 ± 159 nmol/mg/h | 5855 ± 690 nmol/mg/h | 15.4 ± 1.3 % WT
4 | B4 | 19.7 % WT | 1.4 | 55.5 ± 3.7 % WT | 20802 ± 2164 nmol/mg/h | 28411 ± 2891 nmol/mg/h | 75.2 ± 4.1 % WT
5 | B5 | 18.2 % WT | 1.3 | 63.5 ± 2.9 % WT | 26113 ± 1116 nmol/mg/h | 33867 ± 2526 nmol/mg/h | 81.7 ± 5 % WT
6 | B6 | 16.8 % WT | 2.0 | 17.1 ± 1.1 % WT | 6415 ± 391 nmol/mg/h | 12588 ± 538 nmol/mg/h | 33.9 ± 1.8 % WT
